This note sets out measurements from US20200390902A1, “Antibody-Drug Conjugates Targeted at Human Aspartyl-(Asparaginyl)-B-Hydroxylase (HAAH)” (Panacea Pharmaceuticals, Inc., priority 2017, published 2020).

This assay addresses T1, H460 lysate (Homo sapiens, UniProt Q12797).
T1 construct: A 96-well plate was coated with H460 lysate and dried at room temperature overnight; endogenous in cells; host or cells: H460 lysate (sonicated, supernatant)
T1 sequence (Q12797 1-758): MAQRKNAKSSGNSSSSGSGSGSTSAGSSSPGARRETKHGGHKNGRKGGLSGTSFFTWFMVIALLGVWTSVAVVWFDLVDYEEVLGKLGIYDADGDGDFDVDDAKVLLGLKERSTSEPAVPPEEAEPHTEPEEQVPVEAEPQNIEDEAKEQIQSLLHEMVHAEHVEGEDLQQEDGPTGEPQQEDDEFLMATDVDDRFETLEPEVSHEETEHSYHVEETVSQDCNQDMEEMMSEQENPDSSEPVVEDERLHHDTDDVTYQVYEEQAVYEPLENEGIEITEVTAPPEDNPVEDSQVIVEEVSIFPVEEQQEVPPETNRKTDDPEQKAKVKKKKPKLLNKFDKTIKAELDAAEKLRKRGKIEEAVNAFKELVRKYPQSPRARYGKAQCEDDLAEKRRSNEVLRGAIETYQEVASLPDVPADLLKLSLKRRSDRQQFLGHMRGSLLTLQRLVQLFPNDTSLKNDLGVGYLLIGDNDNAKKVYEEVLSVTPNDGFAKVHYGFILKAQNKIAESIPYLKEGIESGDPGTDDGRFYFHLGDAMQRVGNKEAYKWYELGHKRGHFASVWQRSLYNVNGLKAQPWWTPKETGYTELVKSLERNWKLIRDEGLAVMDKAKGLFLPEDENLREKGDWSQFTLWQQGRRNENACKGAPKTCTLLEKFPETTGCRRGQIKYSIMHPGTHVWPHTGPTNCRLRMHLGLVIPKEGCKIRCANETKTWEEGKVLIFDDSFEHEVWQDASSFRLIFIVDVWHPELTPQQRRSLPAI
The assay is described as follows: Binding of naked antibodies and ADCs to H460 lysate. How it is done: H460 cells were harvested, the cell density was adjusted to 2×10^6 cells/ml with PBS, and the resuspended cells sonicated on ice twice in 30 second pulses. After centrifugation at 300×g for 5 minutes the supernatant was collected and the protein concentration measured using a NANODROP spectrophotometer (ThermoFisher Scientific). A 96-well plate was coated with H460 lysate and dried at room temperature overnight. Following a 1-hour blockage with 1% non-fat dry milk in phosphate buffered saline (PBS), the plates were incubated for 45 minutes at 37° C. with each either 0.5 μg/ml IgG1λ (non-specific monoclonal antibody), IgG1λ-MC-DM1 (non-specific ADC), or SNS622-MC-DM1, or with 5 μg/ml SNS622. Following five PBS rinses to remove un-bound antibody. 1:100 goat anti-human IgG (8)-HRP was added and the plates incubated for 30 minutes at 37° C. Following five PBS rinses TMB substrate was added and, after incubation of the plates for 15 minutes at room temperature. Stop solution was added to terminate the reactions. The plates were read at 450 nm using a 96-well plate reader (ELx808, BioTek).

For “SNS622-MC-DM1: SNS622 anti-HAAH monoclonal antibody conjugated to mertansine (DM1) by the non-cleavable linker maleimidocaproyl (MC)”, the Percent binding (percent of loading amount bound) came out at 107%. For the same substance, for the setting “sonicated H460 (2E^6 cells/ml), loading 5.0 or 0.5 μg/ml”, the Binding amount is 5.35 µg/mL.
